Columns and labels:
Test in all cases: cell-based or functional assay
[1] = target: HIV-1 Env of isolate CMU02 (HIV-1)
[2] = target: HIV-1 Env of isolate MGRM-AG-009 (HIV-1)
[3] = target: HIV-1 Env of isolate MGRM-AG-005 (HIV-1)
[4] = target: aMLV envelope (negative control pseudovirus)
[5] = target: HIV-1 Env of isolate MGRM-AG-006 (HIV-1)
[6] = target: HIV-1 Env of isolate MGRM-AG-001 (HIV-1)
[7] = target: HIV-1 Env of isolate MGRM-AE-007 (HIV-1)
[8] = target: HIV-1 Env of isolate MGRM-AG-011 (HIV-1)
[9] = target: HIV-1 Env of isolate MGRM-AG-008 (HIV-1)
[10] = target: HIV-1 Env of isolate MGRM-AG-012 (HIV-1)
[11] = target: HIV-1 Env of isolate MGRM-AG-003 (HIV-1)
[12] = target: HIV-1 Env of isolate MGRM-AG-002 (HIV-1)
[13] = target: HIV-1 Env of isolate MGRM-AG-013 (HIV-1)
[14] = target: HIV-1 Env of isolate MGRM-AE-008 (HIV-1)
[15] = target: HIV-1 Env of isolate MGRM-G-004 (HIV-1)
[16] = target: HIV-1 Env of isolate MGRM-G-015 (HIV-1)
[17] = target: HIV-1 Env of isolate MGRM-Chronic-B-010 (HIV-1)
[18] = target: HIV-1 Env of isolate JRFL (HIV-1)
[19] = target: HIV-1 Env of isolate MGRM-Chronic-B-011 (HIV-1)
[20] = target: HIV-1 Env of isolate MGRM-Chronic-B-023 (HIV-1)
[21] = target: HIV-1 Env of isolate MGRM-D-008 (HIV-1)
[22] = target: HIV-1 Env of isolate MGRM-Chronic-B-024 (HIV-1)
[23] = target: HIV-1 Env of isolate MGRM-G-001 (HIV-1)
[24] = target: HIV-1 Env of isolate MGRM-Chronic-B-018 (HIV-1)
[25] = target: HIV-1 Env of isolate MGRM-G-016 (HIV-1)
[26] = target: HIV-1 Env of isolate MGRM-G-017 (HIV-1)
[27] = target: HIV-1 Env of isolate MGRM-G-014 (HIV-1)
[28] = target: HIV-1 Env of isolate MGRM-G-027 (HIV-1)
[29] = target: HIV-1 Env of isolate MGRM-G-013 (HIV-1)
[30] = target: HIV-1 Env of isolate 92BR020 (pseudovirus) (HIV-1 isolate 92BR020, subtype B)
[31] = target: HIV-1 Env of isolate MGRM-G-019 (HIV-1)
[32] = target: HIV-1 Env of isolate MGRM-Chronic-B-020 (HIV-1)
[33] = target: HIV-1 Env of isolate MGRM-G-009 (HIV-1)
[34] = target: HIV-1 Env of isolate MGRM-G-006 (HIV-1)
[35] = target: HIV-1 Env of isolate MGRM-Chronic-B-017 (HIV-1)
[36] = target: HIV-1 Env of isolate MGRM-G-011 (HIV-1)
[37] = target: HIV-1 Env of isolate MGRM-Chronic-B-012 (HIV-1)
[38] = target: HIV-1 Env of isolate MGRM-AE-006 (HIV-1)
[39] = target: HIV-1 Env of isolate MGRM-AE-004 (HIV-1)
[40] = target: HIV-1 Env of isolate MGRM-AE-005 (HIV-1)

Sequence of 5345_I01 (PGT-137) (antibody) (VH): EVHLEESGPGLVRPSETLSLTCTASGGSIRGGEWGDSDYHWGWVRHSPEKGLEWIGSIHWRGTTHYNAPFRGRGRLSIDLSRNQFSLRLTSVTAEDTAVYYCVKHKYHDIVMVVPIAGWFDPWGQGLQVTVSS
Sequence of 5345_I01 (PGT-137) (antibody) (VL): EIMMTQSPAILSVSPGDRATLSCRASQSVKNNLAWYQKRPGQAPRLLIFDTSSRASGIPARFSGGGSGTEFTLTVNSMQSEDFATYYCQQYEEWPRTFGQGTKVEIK

PGT-122 (antibody)
IC50 (µg/mL), pseudovirus neutralization [1]: > 50 µg/mL

PGT-142 (4995_E20) (antibody)
IC50 [2]: > 50 µg/mL
IC50 [3]: 0.383 µg/mL
neutralization IC50 [4]: > 50 µg/mL
IC50 [5]: > 50 µg/mL
IC50 [6]: 12.4 µg/mL
IC50 [7]: 6.7 µg/mL
IC50 [8]: 0.081 µg/mL
IC50 [9]: 12.1 µg/mL
IC50 [10]: > 50 µg/mL
IC50 [11]: > 50 µg/mL
IC50 [12]: 0.044 µg/mL
IC50 [13]: 21.7 µg/mL
IC50 [14]: 0.08 µg/mL

5345_I01 (PGT-137) (antibody)
IC50, pseudovirus neutralization [15]: > 50 µg/mL
IC50, pseudovirus neutralization [16]: > 50 µg/mL
IC50 [17]: > 50 µg/mL
IC50 [18]: > 50 µg/mL
IC50 [19]: > 50 µg/mL
IC50 [20]: > 50 µg/mL
IC50 [21]: > 50 µg/mL
IC50 [22]: > 50 µg/mL
IC50, pseudovirus neutralization [23]: 41.7 µg/mL
IC50 [24]: > 50 µg/mL
IC50, pseudovirus neutralization [4]: > 50 µg/mL
IC50, pseudovirus neutralization [25]: > 50 µg/mL
IC50, pseudovirus neutralization [26]: 34.9 µg/mL
IC50, pseudovirus neutralization [27]: > 50 µg/mL
IC50, pseudovirus neutralization [28]: 0.228 µg/mL
IC50, pseudovirus neutralization [29]: > 50 µg/mL
IC50 (µg/mL) neutralization [30]: 7.81 µg/mL
IC50, pseudovirus neutralization [31]: 0.126 µg/mL
IC50 [32]: 32.9 µg/mL
IC50, pseudovirus neutralization [33]: > 50 µg/mL
IC50, pseudovirus neutralization [34]: > 50 µg/mL
IC50 [35]: > 50 µg/mL
IC50, pseudovirus neutralization [36]: > 50 µg/mL
IC50 [37]: > 50 µg/mL

PGV04 (antibody)
IC50 (µg/mL), pseudovirus neutralization [2]: 0.148 µg/mL
IC50 (µg/mL), pseudovirus neutralization [1]: 1.24 µg/mL
IC50 (µg/mL), pseudovirus neutralization [21]: 3.56 µg/mL
IC50 (µg/mL), pseudovirus neutralization [3]: 0.027 µg/mL
neutralization IC50 [4]: > 50 µg/mL
IC50 (µg/mL), pseudovirus neutralization [5]: 1.23 µg/mL
IC50 (µg/mL), pseudovirus neutralization [38]: > 50 µg/mL
IC50 (µg/mL), pseudovirus neutralization [6]: 0.218 µg/mL
IC50 (µg/mL), pseudovirus neutralization [7]: 5.75 µg/mL
IC50 (µg/mL), pseudovirus neutralization [8]: 0.071 µg/mL
IC50 (µg/mL), pseudovirus neutralization [9]: 2.48 µg/mL
IC50 (µg/mL), pseudovirus neutralization [10]: 0.04 µg/mL
IC50 (µg/mL), pseudovirus neutralization [11]: 0.058 µg/mL
IC50 (µg/mL), pseudovirus neutralization [39]: 0.183 µg/mL
IC50 (µg/mL), pseudovirus neutralization [12]: 0.879 µg/mL
IC50 (µg/mL), pseudovirus neutralization [40]: 0.051 µg/mL
IC50 (µg/mL), pseudovirus neutralization [13]: 0.03 µg/mL
IC50 (µg/mL), pseudovirus neutralization [14]: 1.51 µg/mL

PGT-144 (4970_K22) (antibody)
IC50 [2]: > 50 µg/mL
IC50 [3]: > 50 µg/mL
neutralization IC50 [4]: > 50 µg/mL
IC50 [5]: > 50 µg/mL
IC50 [6]: > 50 µg/mL
IC50 [7]: > 50 µg/mL
IC50 [8]: 44.6 µg/mL
IC50 [9]: > 50 µg/mL
IC50 [10]: > 50 µg/mL
IC50 [11]: > 50 µg/mL
IC50 [12]: 7.78 µg/mL
IC50 [13]: > 40 µg/mL
IC50 [14]: 3.55 µg/mL

VRC01 (antibody)
neutralization IC50 [17]: 0.156 µg/mL
IC50 [18]: 0.034 µg/mL
neutralization IC50 [19]: 0.587 µg/mL
IC50 [2]: > 50 µg/mL
neutralization IC50 [20]: 0.275 µg/mL
neutralization IC50 [22]: 0.377 µg/mL
IC50 [3]: 0.091 µg/mL
neutralization IC50 [24]: 0.328 µg/mL
neutralization IC50 [4]: > 50 µg/mL
IC50 [5]: 0.344 µg/mL
IC50 [6]: 0.228 µg/mL
IC50 [7]: 0.835 µg/mL
IC50 [8]: 0.084 µg/mL
IC50 [9]: 0.124 µg/mL
IC50 [10]: 0.031 µg/mL
IC50 [11]: 0.043 µg/mL
IC50 [12]: 0.95 µg/mL
neutralization IC50 [32]: 0.424 µg/mL
neutralization IC50 [35]: 0.141 µg/mL
IC50 [13]: 0.197 µg/mL
neutralization IC50 [37]: 1.03 µg/mL
IC50 [14]: 1.72 µg/mL
